In patent US9989536B2, “Specific and high affinity binding proteins comprising modified SH3 domains of FYN kinase” (EIDGENOESSISCHE TECHNISCHE HOCHSCHULE ZURICH, priority 2006, dated 2018):
Each block holds one substance with its values, some of them ahead of it.

Assays:
[1] = system: Normal Human Dermal Fibroblasts (NHDF); assay: XTT viability of NHDF cells; format: cell-based; conditions: polypeptides at 750 nM, IL-17 receptor 10 nM, 24 hours
Method: IL-17A induces the production of IL-6 in fibroblasts in a dose-dependent manner (Yao et al. (1995) Immunity, 3, p. 811-821). […] Cell culture supernatants were taken after 24 h of stimulation and assayed for IL-6 with ELISA. […] Only viable and metabolic active cells are capable of reducing the tetrazolium salt XTT to orange-colored compounds of formazan (Scudiero, et al. (1988), Cancer Res. 48, p. 4827-4833).
400 μl of a cell suspension containing about 1×10^4 Normal Human Dermal Fibroblasts (PromoCell, NHDF-c, C12300) were distributed per well (24 well plate, Nunc or TPP) and cultured for 24 hours at 37° C. (medium: Fibroblast Growth Medium C-23010, PromoCell). […] After 24 hours incubation at 37° C. the supernatant was aspirated and the IL-6 concentration was determined by ELISA according to the manufacturer's instructions (IL-6 ELISA kit, R&D Systems). Immediately after the aspiration of the supernatant the XTT-containing medium was added (Cell Proliferation Kit II, Roche) and cell viability was determined according to the manufacturer's instructions.

IL-17A [2] = target: T1, IL-17A (Homo sapiens, UniProt Q16552); assay: IL-17A inhibition cell assay (IL-6 production in NHDF, 50 ng/ml IL-17A); format: cell-based; conditions: NHDF cells in presence of IL-17A
T1 construct: purchased R&D Systems

IL-17A [3] = target: T1, IL-17A; assay: Acute inflammation model: human IL-17A induced KC production in mice; format: in vivo, mouse; conditions: C57BL/6 mice, co-injected s.c. with 3 μg human IL-17A (17 μg 2C1, 16 μg wt), 2 hours
Method: Human IL-17A is able to bind and stimulate the mouse IL-17 receptor, leading to an elevation and subsequent secretion of mouse KC (CXCL1) chemokine (Allan B. et al. (2007) WO2007/070750 of Eli Lilly, US). The observed KC levels 2 hours after s.c. IL-17A injection (3 μg) were between […] in the serum, compared to around […] KC basal levels.
The blood samples were centrifuged for 10 min at 9500×g and the serum was stored at −20° until ELISA analysis was performed. KC levels in serum were determined using the commercially available Quantikine mouse CLCL1/KC kit (R&D Systems).
After 20-60 minutes, 3 μg/mouse of human IL-17A (R&D Systems) was injected s.c. and 2 hours after IL-17A injection, blood samples were taken from the vena saphena with the capillary Microvette CB 300 (Sarstedt). The blood samples were centrifuged for 10 min at 9500×g and the serum was stored at −20° until ELISA analysis was performed. KC levels in serum were determined using the commercially available Quantikine mouse CLCL1/KC kit (R&D Systems).

[4] = system: F9 murine teratocarcinoma; assay: Quantitative biodistribution of 125I-labeled protein in tumor-bearing mice; format: in vivo; conditions: i.v., 24 h
[5] = Humira Drug Approval Package; cited from earlier work

T1 sequence (Q16552 20-155 limits assumed): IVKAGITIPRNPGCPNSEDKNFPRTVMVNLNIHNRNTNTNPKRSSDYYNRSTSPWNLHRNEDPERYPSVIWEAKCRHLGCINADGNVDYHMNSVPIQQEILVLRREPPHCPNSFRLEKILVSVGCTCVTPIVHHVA

Substance: IL-17A receptor-Fc chimera: commercially available human IL-17A receptor Fc chimera (R&D Systems)
cell viability (XTT assay) [1]: all cells were viable

inhibition of IL-6 production (IL-17A [2]): no inhibition of IL-6 production
Substance: Fyn SH3 wt: wild type SH3 domain of Fyn kinase, SEQ ID NO: 1 (SEQ ID NO: 339 in Example 5)
KC levels in mouse serum (IL-17A [3]): as high as in the group receiving IL-17A only
accumulation in the tumor [4]: no enrichment

Substance: adalimumab
half-life of other human antibodies in mice [5]: 102 to 193 h
